# Reference: PMC13541299
# “And” between values parts separate entries of the source, which are not always exact repeats. Identical values can stand only once.
# B1: Stu2-TOG2 (318–560) (domain or fragment)
# chain: MLPEETILDKLPKDFQERITSSKWKDRVEALEEFWDSVLSQTKKLKSTSQNYSNLLGIYGHIIQKDANIQAVALAAQSVELICDKLKTPGFSKDYVSLVFTPLLDRTKEKKPSVIEAIRKALLTICKYYDPLASSGRNEDMLKDILEHMKHKTPQIRMECTQLFNASMKEEKDGYSTLQRYLKDEVVPIVIQIVNDTQPAIRTIGFESFAILIKIFGMNTFVKTLEHLDNLKRKKIEETVKTL
# Target: biotinylated polymerization-blocked yeast αβ-tubulin, LR1 (β: T175R, V179R) (S. cerevisiae) (UniProt P09733)
# Experiment: BLI; biotinylated polymerization-blocked tubulin immobilised on Streptavidin (SA) biosensors (OctetR8), dipped into TOG2 at 2.3 to 200 nM; 100 mM PIPES pH 6.9, 10 mM NaCl, 1 mM MgCl2, 1 mM EGTA, 1 mM GTP, 0.1% BSA, 0.005% Triton X-100; association 300 s, dissociation 300 s; 1:1 model; steady-state amplitudes and global kinetic fit
binder,measurement,value
B1,Kd,8.9 nM and 9.6 nM
same,koff,0.03 s⁻¹
same,kon,3.2e+06 M⁻¹ s⁻¹
